One test deals with T1, LukD.
T1 chain: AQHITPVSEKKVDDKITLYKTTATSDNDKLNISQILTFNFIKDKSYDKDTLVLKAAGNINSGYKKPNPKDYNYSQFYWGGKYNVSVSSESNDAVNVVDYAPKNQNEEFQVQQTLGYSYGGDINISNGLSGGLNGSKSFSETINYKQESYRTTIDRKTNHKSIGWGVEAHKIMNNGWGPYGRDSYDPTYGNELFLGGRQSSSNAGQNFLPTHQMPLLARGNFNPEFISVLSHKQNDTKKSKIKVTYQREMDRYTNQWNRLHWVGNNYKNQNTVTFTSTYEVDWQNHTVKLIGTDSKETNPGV
In words: MSD solution equilibrium; Fab.

The target of another test is T2, LukF.
T2 chain: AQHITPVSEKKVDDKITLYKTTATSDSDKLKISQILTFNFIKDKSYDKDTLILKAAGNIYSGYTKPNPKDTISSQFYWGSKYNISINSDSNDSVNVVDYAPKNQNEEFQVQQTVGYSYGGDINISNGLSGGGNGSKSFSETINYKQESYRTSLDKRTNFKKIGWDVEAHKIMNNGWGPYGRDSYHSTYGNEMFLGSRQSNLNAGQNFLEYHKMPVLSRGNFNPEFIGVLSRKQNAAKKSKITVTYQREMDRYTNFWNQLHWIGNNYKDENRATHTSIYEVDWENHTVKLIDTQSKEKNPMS
Kind of test: MSD solution equilibrium; Fab.

In another test the target is T3, HlgB.
T3 chain: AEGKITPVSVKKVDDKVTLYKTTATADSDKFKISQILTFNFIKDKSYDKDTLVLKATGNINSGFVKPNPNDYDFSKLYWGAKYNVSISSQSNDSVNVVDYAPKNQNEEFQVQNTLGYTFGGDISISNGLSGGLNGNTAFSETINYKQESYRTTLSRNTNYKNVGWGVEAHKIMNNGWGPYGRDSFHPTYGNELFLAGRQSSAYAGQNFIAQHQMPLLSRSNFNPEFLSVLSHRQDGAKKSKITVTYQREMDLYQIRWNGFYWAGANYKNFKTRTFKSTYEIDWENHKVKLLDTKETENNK
Kind of test: MSD solution equilibrium; Fab.

The next test addresses T4, Hla.
T4 chain: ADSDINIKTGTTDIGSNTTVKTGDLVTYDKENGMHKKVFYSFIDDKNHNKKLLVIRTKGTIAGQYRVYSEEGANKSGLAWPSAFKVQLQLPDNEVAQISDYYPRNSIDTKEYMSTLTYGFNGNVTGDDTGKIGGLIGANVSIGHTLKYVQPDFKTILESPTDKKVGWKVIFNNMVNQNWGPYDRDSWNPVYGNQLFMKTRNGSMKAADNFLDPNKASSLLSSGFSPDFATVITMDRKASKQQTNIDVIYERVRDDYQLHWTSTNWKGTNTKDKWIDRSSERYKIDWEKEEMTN

Bounds are passed on as bounds.

B1: AB-28-6 (antibody, V domains shown)
VH: QVQLQESGPGLVRPSETLSLTCAVSGYSISSGMGWGWIRQPPGKGLEWIGSIDQRGSTYYNPSLKSRVTISVDTSKNQFSLKLSSVTAADTAVYYCARDAGHAVDMDVWGKGTTVTVSS
VL: DIQMTQSPSSVSASVGDRVTITCRASQGISRWLAWYQQKPGKAPKLLIYAASSLQSGVPSRFSGSGSGTDFTLTISSLQPEDFATYYCQQGYVFPLTFGGGTKVEIK
The term Kd denotes a measure of binding affinity in units of concentration. In the case of B1, the Kd with LukD is 0.4 nM; in the test with LukF it was 0.016 nM; with HlgB, 0.0025 nM; in the test with Hla, below 0.002 nM.

B2: AB-28-5 (antibody, V domains shown)
VH: QVQLQESGPGLVKPSETLSLTCAVSGYSISSGMGWGWIRQPPGKGLEWIGRVDQRGSTYYNPSLKSRVTISVDTSKNQFSLKLSSVTAADTAVYYCARDAGHGVDMDVWGKGTTVTVSS
VL: DIQMTQSPSSVSASVGDRVTITCRASQGISRWLAWYQQKPGKAPKLLIYAASSLQSGVPSRFSGSGSGTDFTLTISSLQPEDFATYYCQQGYVFPLTFGGGTKVEIK
For B2, the equilibrium dissociation constant (Kd) in the test with LukD came to 0.16 nM; with HlgB, 0.16 nM; with Hla, 0.03 nM.

B3: AB-28-9 (antibody, V domains shown)
VH: EVQLQESGPGLVRPSETLSLTCAVSGYSISSGMGWGWIRQPPGKGLEWIGSIDQRGSTYYNPSLKSRVTISVDTSKNQFSLKLSSVTAADTAVYYCARDAGHAVDMDVWGKGTTVTVSS
VL: DIQMTQSPSSVSASVGDRVTITCRASQGISRWLAWYQQKPGKAPKLLIYAASSLQSGVPSRFSGSGSGTDFTLTISSLQPEDFATYYCQQGYVFPLTFGGGTKVEIK
B3: the equilibrium dissociation constant (Kd) with LukD was 2.2 nM; with LukF it was 0.13 nM; with HlgB, 0.005 nM; with Hla, below 0.002 nM.

B4: AB-28-11 (antibody, V domains shown)
VH: QVQLQESGPGLVKPSETLSLTCAVSGYSISSGMGWDWIRQPPGKGLEWIGSIDQRGSTYYNPSLEGRVTISVDTSKNQFSLKLSSVTAADTAVYYCARDAGHGVDMDVWGKGTTVTVSS
VL: DIQMTQSPSSVSASVGDRVTITCRASQGISRWLAWYQQKPGKAPKLLIYAASSLQSGVPSRFSGSGSGTDFTLTISSLQPEDFATYYCQQGYVFPLTFGGGTKVEIK
Regarding B4, the equilibrium dissociation constant (Kd) in the test with LukD is 1.2 nM; in the test with LukF, 0.071 nM; with HlgB, 0.003 nM; in the test with Hla, below 0.002 nM.

B5: AB-28-12 (antibody, V domains shown)
VH: QVQLQESGPGLVKPSETLSLTCAVSGYSISSGMGWDWIRQPPGKGREWIGSIDQRGSTYYNPSLEGRVTISVDTSKNQFSLKLSSVTAADTAVYYCARDAGHGVDMDVWGKGTTVTVSS
VL: DIQMTQSPSSVSASVGDRVTITCRASQGISRWLAWYQQKPGKAPKLLIYAASSLQSGVPSRFSGSGSGTDFTLTISSLQPEDFATYYCQQGYVFPLTFGGGTKVEIK
For the molecule B5, the equilibrium dissociation constant (Kd) in the test with LukD was 0.46 nM; with LukF it was 0.063 nM; in the test with HlgB, below 0.002 nM; in the test with Hla, below 0.002 nM.

B6: AB-28-13 (antibody, V domains shown)
VH: QVQLQESGPGLVKPSETLSLTCAVSGYSISSGMGWDWIRQPPGKGLEWIGSIDQRGSTYYNPSLEGRATISVDTSKNQFSLKLSSVTAADTAVYYCARDAGHGVDMDVWGKGTTVTVSS
VL: DIQMTQSPSSVSASVGDRVTITCRASQGISRWLAWYQQKPGKAPKLLIYAASSLQSGVPSRFSGSGSGTDFTLTISSLQPEDFATYYCQQGYVFPLTFGGGTKVEIK
Turning to B6, the Kd in the test with LukD was 0.79 nM; with LukF, 0.089 nM; with HlgB it was 0.003 nM; with Hla, below 0.002 nM.

B7: AB-28-8 (antibody, V domains shown)
VH: QVQLQESGPGLVKPSETLSLTCAVSGYSISSGMGWDWIRQPPGKGLEWIGSIDQRGSTYYNPPLESRVTISVDTSKNQFSLKLSSVTAADTAVYYCARDAGHGVDMDVWGKGTTVTVSS
VL: DIQMTQSPSSVSASVGDRVTITCRASQGISRWLAWYQQKPGKAPKLLIYAASSLQSGVPSRFSGSGSGTDFTLTISSLQPEDFATYYCQQGYVFPLTFGGGTKVEIK
Turning to B7, the Kd is 0.78 nM with LukD, 0.046 nM with LukF, 0.002 nM with HlgB and below 0.002 nM in the test with Hla.

B8: AB-28-10 (antibody, V domains shown)
VH: QVQLQESGPGLVKPSETLSLTCAVSGYSISSGMGWGWIRQPPGKGLEWIGSIDQRGSTYYNPSLKSRVTISVDTSKNQFSLKLSSVTAADTAVYYCARDAGHAVDMDVWGKGTTVTVSS
VL: DIQMTQSPSSVSASVGDRVTITCRASQGISRWLAWYQQKPGKAPKLLIYAASSLQSGVPSRFSGSGSGTDFTLTISSLQPEDFATYYCQQGYVFPLTFGGGTKVEIK
As to B8, the Kd is 0.45 nM with LukD, 0.017 nM with LukF, 0.006 nM with HlgB and below 0.002 nM with Hla.

B9: AB-28 (antibody, V domains shown)
VH: QVQLQESGPGLVKPSETLSLTCAVSGYSISSGMGWGWIRQPPGKGLEWIGSIDQRGSTYYNPSLKSRVTISVDTSKNQFSLKLSSVTAADTAVYYCARDAGHGVDMDVWGKGTTVTVSS
VL: DIQMTQSPSSVSASVGDRVTITCRASQGISRWLAWYQQKPGKAPKLLIYAASSLQSGVPSRFSGSGSGTDFTLTISSLQPEDFATYYCQQGYVFPLTFGGGTKVEIK
With B9, the Kd was 2.2 nM in the test with LukD, 0.13 nM in the test with LukF, 0.005 nM with HlgB and below 0.002 nM in the test with Hla.

B10: AB-28-3 (antibody, V domains shown)
VH: QVQLQESGPGLVKPSETLSLTCAVSGYSISSGMGWGWIRQPPGKGLEWIGSVDQRGSTYYNPSLKSRVTISVDTSKNQFSLKLSSVTAADTAVYYCARDAGHGADMDVWGKGTTVTVSS
VL: DIQMTQSPSSVSASVGDRVTITCRASQGISRWLAWYQQKPGKAPKLLIYAASSLQSGVPSRFSGSGSGTDFTLTISSLQPEDFATYYCQQGYVFPLTFGGGTKVEIK
Turning to B10, the Kd is 1.7 nM in the test with LukD, below 0.003 nM with LukF, 0.018 nM in the test with HlgB and 0.037 nM with Hla.

B11: AB-28-4 (antibody, V domains shown)
VH: QVQLQESGPGLVKPSETLSLTCAVSGYPISSGMGWGWIRQPPGKGLEWIGRIDQRGSTYYNPSLKSRATISVDTSKNQFSLKLSSVTAADTAVYYCARDAGHGVDMDVWGKGTTVTVSS
VL: DIQMTQSPSSVSASVGDRVTITCRASQGISRWLAWYQQKPGKAPKLLIYAASSLQSGVPSRFSGSGSGTDFTLTISSLQPEDFATYYCQQGYVFPLTFGGGTKVEIK
For the molecule B11, the Kd stood at 0.086 nM with LukD, 0.14 nM with HlgB and 0.023 nM with Hla.

B12: AB-28-7 (antibody, V domains shown)
VH: QVQLQESGPGLVKPSETLSLTCAVSGYSISSGMGWDWIRQPPGKGREWIGSIDQRGSTYYNPSLEGRATISVDTSKNQFSLKLSSVTAADTAVYYCARDAGHGVDMDVWGKGTTVTVSS
VL: DIQMTQSPSSVSASVGDRVTITCRASQGISRWLAWYQQKPGKAPKLLIYAASSLQSGVPSRFSGSGSGTDFTLTISSLQPEDFATYYCQQGYVFPLTFGGGTKVEIK
Regarding B12, the dissociation constant Kd in the test with LukD is 0.29 nM; in the test with LukF, 0.052 nM; with HlgB it was below 0.002 nM; with Hla, below 0.002 nM.

Values taken from patent US20180179267A1 (published 2018).
